We go through 1 substance from US4835253A, “Specific inhibitors of tissue kallikrein” (The University Hospital, priority 1987, dated 1989).

Holding throughout (format): biochemical, human
Data set [1] deals with T1, NCCCC[C@H](NC(=O)[C@H](CC1CCCCC1)NC(=O)[C@H](N)c1ccccc1)C(=O)Nc1ccc([N+](=O)[O-])cc1.
T1 construct: Human urinary kallikrein (hereinafter "HUK") was highly purified using a modification of published methods; from tissue; host or cells: human urine
In words: Km and Vmax of tripeptide 4-nitroanilides with HUK. The following applies: other: tripeptide 4-nitroanilide as HUK substrate; pH 9.0; 37.0 °C. From the text: (§1) An evaluation of other possible peptide sequences and their potential effect as substrate analogue inhibitors specifically of tissue kallikrein was undertaken using chromogenic substrates comprising alternate series of tripeptide 4-nitroanilides using previously described methods [Amundsen et al., "Methods For The Determination Of Glandular Kallikrein By Means Of A Chromogenic Tripeptide Substrate," in Kinins-II. Part A. Plenum Press, 1979, pages 83-95]. This methodology relies on the capacity of HUK to cleave p-nitroaniline from specifically synthesized tripeptide 4-nitroanilines. Controls for this experimental series included S-2266 comprising D-Val-Leu-Arg-4NA; S-2444 comprising D-Glu-Gly-Arg-4NA; and S-2302 comprising D-Pro-Phe-Arg-4NA respectively. The 50% inhibitory concentration (IC50) values for each synthesized tripeptide 4-nitroanilide was determined at 37 C. at pH 9.0 using the specific kallikrein substrates S-2266 (Kabi, Helena Laboratories, Beaumont, Tex.). 4.0 nanograms (hereinafter "ng") of HUK were used in each sample. Blanks lacking S-2266 were run in parallel to correct for hydrolysis of all samples. In all cases, the amount of 4-nitroaniline generated from each tripeptide was less than 10% of that observed for the hydrolysis of S-2266.
(§2) Subsequently, the Km and Vmax for each test tripeptide 4-nitroanilide was determined using conventional techniques in an HP-8450 diode array spectrophotometer (Hewlett Packard Company) attached to a HP-85 microcomputer. The multicomponent assay program was modified to allow the simultaneous determination of the reaction velocity in four samples.

Data set [2] has as its system T2, N=C(N)NCCC[C@H](NC(=O)[C@H](CC1CCCCC1)NC(=O)[C@@H](N)C1CCCCC1)C(=O)Nc1ccc([N+](=O)[O-])cc1.
T2 construct: Human urinary kallikrein (hereinafter "HUK") was highly purified using a modification of published methods; from tissue; host or cells: human urine
The experiment in a line: Km and Vmax of tripeptide 4-nitroanilides with HUK. To be noted: other: tripeptide 4-nitroanilide as HUK substrate; pH 9.0; 37.0 °C.
From the text: as §1, §2

Data set [3] has as its system T3, N=C(N)NCCC[C@H](NC(=O)[C@H](Cc1ccccc1)NC(=O)[C@H](N)C1CCCCC1)C(=O)Nc1ccc([N+](=O)[O-])cc1.
T3 construct: Human urinary kallikrein (hereinafter "HUK") was highly purified using a modification of published methods; from tissue; host or cells: human urine
The experiment in a line: Km and Vmax of tripeptide 4-nitroanilides with HUK. The following applies: other: tripeptide 4-nitroanilide as HUK substrate; pH 9.0; 37.0 °C.
From the text: as §1, §2

Data set [4] relates to T4, N=C(N)NCCC[C@H](NC(=O)[C@H](CC1CCCCC1)NC(=O)[C@H](N)c1ccccc1)C(=O)Nc1ccc([N+](=O)[O-])cc1.
T4 construct: Human urinary kallikrein (hereinafter "HUK") was highly purified using a modification of published methods; from tissue; host or cells: human urine
In words: Km and Vmax of tripeptide 4-nitroanilides with HUK. To be noted: other: tripeptide 4-nitroanilide as HUK substrate; pH 9.0; 37.0 °C.
From the text: as §1, §2

Data set [5] has as its system T5, NCCCC[C@H](NC(=O)[C@H](CC1CCCCC1)NC(=O)[C@H](N)C1CCCCC1)C(=O)Nc1ccc([N+](=O)[O-])cc1.
T5 construct: Human urinary kallikrein (hereinafter "HUK") was highly purified using a modification of published methods; from tissue; host or cells: human urine
The experiment in a line: Km and Vmax of tripeptide 4-nitroanilides with HUK. The following applies: other: tripeptide 4-nitroanilide as HUK substrate; pH 9.0; 37.0 °C.
From the text: as §1, §2

Data set [6] relates to T6, CC[C@H](C)[C@H](N)C(=O)N[C@@H](CC1CCCCC1)C(=O)N[C@@H](CCCNC(=N)N)C(=O)Nc1ccc([N+](=O)[O-])cc1.
T6 construct: Human urinary kallikrein (hereinafter "HUK") was highly purified using a modification of published methods; from tissue; host or cells: human urine
The experiment in a line: Km and Vmax of tripeptide 4-nitroanilides with HUK. To be noted: other: tripeptide 4-nitroanilide as HUK substrate; pH 9.0; 37.0 °C.
From the text: as §1, §2

The test system of data set [7] is T7, CC(=O)N1CCC[C@H]1C(=O)N[C@@H](Cc1ccccc1)C(=O)N[C@@H](CCCNC(=N)N)C(=O)N[C@@H](CO)C(=O)N[C@H](C(=O)N[C@@H](CCC(N)=O)C(N)=O)C(C)C.
T7 construct: Human urinary kallikrein (hereinafter "HUK") was highly purified using a modification of published methods; from tissue; host or cells: human urine
The experiment in a line: KM determination: hydrolysis of substrate analogues by HUK (HPLC, scintillation counting). To be noted: other: hydrolysis by HUK, pH 9.0, 37 C, thirty minutes. On the procedure: (§3) Human urinary kallikrein (hereinafter "HUK") was highly purified using a modification of published methods that employ ultrafiltration, aprotinin-CH-sepharose affinity chromatography, and Sephadex G-100 gel filtration [ole-MoiYoi et al., Proc. Natl. Acad. Sci. USA 76: 3121-3125 (1979)]. […] The pH of each fraction was determined immediately upon elution, and the fraction was neutralized by addition of 2.0 ml of 2M Tris-HCL buffer (pH 8.0).
(§4) KM Determination: Hydrolysis of the substrate analogue inhibitors by HUK was measured by combining the test inhibitor at different concentrations on either side of the KM value with the enzyme at pH 9.0 for thirty minutes at 37 C. The cleavage products were separated from the starting material in the digest by HPLC on a Beckman octadecylsilane (ODS) column (1×25 cm) using a thirty minute gradient of from 0-70% CH3 CN in triethylammonium phosphate buffer (pH 7.0). The starting materials and reaction products were completely resolved under these conditions. Absorbance of the HPLC effluent was monitored at 220 nm. Individual fractions were collected and the amount of peptide degradation products was quantitated by counting in a liquid scintillation counter. Samples containing individual inhibitors were incubated without HUK and solvent blanks were also chromatographed and analyzed in the same way.
(§5) For test purposes, in these HUA cleavage studies, individual peptide sequences were synthesized, purified, and characterized as previously described herein. For these cleavage studies, doubly labelled peptides were prepared using [^3 H]-valine and […] respectively. In addition, 6.0N HCL-dioxane was used for removal of tert-butoxycarbonyl protecting groups and 90% hydrogen fluoride/10% anisole (volume/volume) for global deprotection on completion of the synthesis. After extraction and gel filtration on Sephadex G-15, final purification was completed by isocratic elution from a synchrom RP-P column (2.1×25 cm) with CH3 CN--H2 O (8 ml/min). The resultant peptides were deemed to be homogeneous by amino acid analysis; high performance liquid chromatography; thin layer chromatography; and A230 /A260 ratio analysis. […]

Data set [8] has as its system T8, CC(=O)N[C@@H](CO)C(=O)N1CCC[C@H]1C(=O)N[C@@H](Cc1ccccc1)C(=O)N[C@@H](CCCNC(=N)N)C(=O)N[C@@H](CO)C(=O)N[C@H](C(=O)N[C@@H](CCC(N)=O)C(N)=O)C(C)C.
T8 construct: Human urinary kallikrein (hereinafter "HUK") was highly purified using a modification of published methods; from tissue; host or cells: human urine
Described as above. The following applies: other: hydrolysis by HUK, pH 9.0, 37 C, thirty minutes. On the procedure: as §3, §4, §5

The test system of data set [9] is T9, CC(=O)N[C@@H](Cc1ccccc1)C(=O)N[C@@H](CCCN=C(N)N)C(=O)N[C@@H](CO)C(=O)N[C@H](C(=O)N[C@@H](CCC(N)=O)C(N)=O)C(C)C.
T9 construct: Human urinary kallikrein (hereinafter "HUK") was highly purified using a modification of published methods; from tissue; host or cells: human urine
Described as above. To be noted: other: hydrolysis by HUK, pH 9.0, 37 C, thirty minutes. Here is the method: as §3, §4, §5

The Km is the substrate concentration at which the rate is half of its maximum.

In the case of Human urinary kallikrein (Homo sapiens), the Michaelis-Menten constant (Km) in [1] stood at 48.1 µM; in [2], 12.5 µM; in data set [3], 0.84 µM; in data set [4], 1.96 µM; in data set [5], 46.6 µM; in data set [6], 1.33 µM. Further, the figures for the Km in data set [7], in [8] and in data set [9] were 482 µM, 37.6 µM and 307 µM, respectively. Besides, the results for the kcat in [7] and in data set [9] were 229 mol/mol/sec and 188 mol/mol/sec, respectively.
